{
  "source": "patent US7037662",
  "about": "(dated 2006)",
  "binders": {"B1": {"name": "LERK 7-FLAG (monovalent LERK7/AL-1 with N-terminal FLAG peptide) (ligand, human, UniProt P52803 21-203, looked up, not shown: small tags and cut ends)", "chain": "QDPGSKAVADRYAVYWNSSNPRFQRGDYHIDVCINDYLDVFCPHYEDSVPEDKTERYVLYMVNFDGYSACDHTSKGFKRWECNRPHSPNGPLKFSEKFQLFTPFSLGFEFRPGREYFYISSAIPDNGRRSCLKLKVFVRPTNSCMKTIGVHDRVFDVNDKVENSLEPADDTVHESAEPSRGEN", "notes": "domain: mature protein stopped before the hydrophobic tail; also called soluble LERK7"}},
  "key": {"[1]": {"molecular_target": "T1, soluble HEK (sHEK), complete extracellular domain (exodomain) of HEK encoded by exons I-VII (human, UniProt P29320 21-541)", "T1 construct": "extracellular domain; Untagged soluble exodomain from CHO cells; also called HEK exodomain", "T1 sequence (looked up)": "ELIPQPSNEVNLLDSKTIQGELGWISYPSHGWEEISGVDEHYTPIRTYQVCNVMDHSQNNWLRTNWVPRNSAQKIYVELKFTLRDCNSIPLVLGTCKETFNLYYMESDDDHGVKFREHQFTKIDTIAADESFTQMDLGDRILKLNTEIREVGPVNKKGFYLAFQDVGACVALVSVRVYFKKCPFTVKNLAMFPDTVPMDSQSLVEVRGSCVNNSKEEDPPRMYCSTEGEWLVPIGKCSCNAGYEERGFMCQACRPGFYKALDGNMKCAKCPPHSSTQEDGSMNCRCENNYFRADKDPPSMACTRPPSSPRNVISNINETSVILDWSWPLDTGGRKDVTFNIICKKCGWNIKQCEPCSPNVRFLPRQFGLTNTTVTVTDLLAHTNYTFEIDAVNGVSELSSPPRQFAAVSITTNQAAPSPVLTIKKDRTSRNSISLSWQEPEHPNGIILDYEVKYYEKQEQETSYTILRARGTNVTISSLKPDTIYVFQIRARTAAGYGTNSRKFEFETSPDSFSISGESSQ", "assay": "BIAcore, LERK 7-FLAG over immobilised sHEK, single component model", "method": "(§1) The binding of various HEK constructs and derived peptides was analysed on the BIAcore optical biosensor (Pharmacia Biosensor, Sweden) using purified soluble HEK (corresponding to the entire extracellular domain) or LERK 7-FLAG derivatised CM 5 sensor chips and the interaction kinetics determined. The immobilization of HEK onto the sensor chip surface was performed essentially as described by Lackmann et al, 1996. LERK7-FLAG (47 μg/ml in 20 mM sodium acetate, pH 4.5) was coupled at 5 μl/min onto N-hydroxysuccinimide (NHS, 0.05 M)/N-hydroxysuccinimide-N-ethyl-N'-([…]) carbodiimide(EDC, 0.2 M) activated sensor chips (45 μl, 2 μl/min) to yield an increase in the response level of 2500–3000 response units (RU).\n(§2) Figures 5A, 5B: FIG. 5: Binding curves for the interaction of monovalent LERK-FLAG fusion proteins with immobilised sHEK. Homogeneous preparations of CHO cell-derived LERK 3-FLAG (panel A) or LERK 7-FLAG (panel B) at increasing concentrations (8.22, 16.44, 32.88, 65.75, 131.5, 263, 526 nM) of LERK3-FLAG, and (1.25, 2.5, 5, 10, 20, 40, 80 nM) LERK7-FLAG were injected across an sHEK-derivatised sensor surface. BIAcore data for the association and dissociation phases were used to estimate corresponding kinetic rate constants on the basis of a one-to-one interaction model. (panel C). […]"}, "[2]": {"molecular_target": "T1, soluble HEK (sHEK), complete …", "assay": "BIAcore, monovalent ligand constructs on HEK; reference LERK 3-FLAG"}, "[3]": {"molecular_target": "T2, HEK I-VII (N-terminally FLAG-tagged HEK exodomain, exons I-VII) (human, UniProt P29320 21-541)", "T2 construct": "extracellular domain; CHO cell product; in the zebrafish experiments expressed from injected mRNA; also called HEK-FLAG", "T2 sequence (looked up)": "T1 sequence (looked up)", "assay": "BIAcore, apparent KD from kinetic constants, HEK I-VII over sensor chip-immobilised LERK 7", "method": "as §1\n(§3) Figure 2D: FIG. 2D: sHEK proteins at increasing concentrations (15.6–500 nM) were injected onto LERK 7-derivatised sensor chips and the association rate constants, (M) derived from BIAcore raw data using the BIA evaluation software as described in *Materials and Methods*. Figure 2E: FIG. 2E; The kinetic rate constants were then used to estimate apparent dissociation constants according to K_D=kd/ka. The mean and standard deviation from estimates at five different concentrations are shown (dark shading). In addition, equilibrium responses were used to estimate the apparent equilibrium dissociation constants (light shading)."}, "[4]": {"molecular_target": "T1, soluble HEK (sHEK), complete …", "assay": "BIAcore, apparent KD from kinetic rate constants, immobilised sHEK", "method": "as §1, §2"}, "[5]": {"molecular_target": "T1, soluble HEK (sHEK), complete …", "assay": "BIAcore, LERK-FLAG over immobilised HEK; reference LERK 3-FLAG"}, "[6]": {"molecular_target": "T1, soluble HEK (sHEK), complete …", "assay": "BIAcore, apparent KD from kinetic constants, sHEK over sensor chip-immobilised LERK 7; sHEK over sensor chip-immobilised LERK 7", "method": "as §1, §3"}},
  "data": [
    {"binder": "B1", "values": [
      {"measurement": "koff", "setting": "[1]", "value": 0.0061, "unit": "s⁻¹"},
      {"measurement": "kon", "setting": "[1]", "value": 480000, "unit": "M⁻¹ s⁻¹"},
      {"measurement": "fold more avid than LERK3", "setting": "[2]", "value": 50, "unit": "fold"},
      {"measurement": "Kd", "setting": "[3]", "value": 62, "unit": "nM"},
      {"measurement": "Kd", "setting": "[4]", "value": 12, "unit": "nM"},
      {"measurement": "fold lower off rate than LERK3-FLAG", "setting": "[5]", "value": 40, "unit": "fold"},
      {"measurement": "Kd", "setting": "[6]", "value": 72, "unit": "nM"}
    ]}
  ]
}
